Source: patent US20200087373A1 (UNIVERSITY OF COPENHAGEN, published 2020)
Ends that are not written are not given here. * marks the point of attachment. C16 diacid = O=C(O)CCCCCCCCCCCCCCC(=O)*

B1: AT178 [hGIP(5-30)NH2[I17K]-C16diacid/17] (peptide)
peptide: TFISDYSIAMDKK(C16 diacid)HQQDFVNWLLAQK-NH2
modifications: N-terminus assumed
SMILES: CC[C@H](C)[C@H](NC(=O)[C@H](CO)NC(=O)[C@H](Cc1ccc(O)cc1)NC(=O)[C@H](CC(=O)O)NC(=O)[C@H](CO)NC(=O)[C@@H](NC(=O)[C@H](Cc1ccccc1)NC(=O)[C@@H](N)[C@@H](C)O)[C@@H](C)CC)C(=O)N[C@@H](C)C(=O)N[C@@H](CCSC)C(=O)N[C@@H](CC(=O)O)C(=O)N[C@@H](CCCCN)C(=O)N[C@@H](CCCCNC(=O)CCCCCCCCCCCCCCC(=O)O)C(=O)N[C@@H](Cc1c[nH]cn1)C(=O)N[C@@H](CCC(N)=O)C(=O)N[C@@H](CCC(N)=O)C(=O)N[C@@H](CC(=O)O)C(=O)N[C@@H](Cc1ccccc1)C(=O)N[C@H](C(=O)N[C@@H](CC(N)=O)C(=O)N[C@@H](Cc1c[nH]c2ccccc12)C(=O)N[C@@H](CC(C)C)C(=O)N[C@@H](CC(C)C)C(=O)N[C@@H](C)C(=O)N[C@@H](CCC(N)=O)C(=O)N[C@@H](CCCCN)C(N)=O)C(C)C
B2: AT179 [hGIP(5-30)NH2[Q19K]-C16diacid/19] (peptide)
peptide: TFISDYSIAMDKIHK(C16 diacid)QDFVNWLLAQK-NH2
modifications: N-terminus assumed
SMILES: CC[C@H](C)[C@H](NC(=O)[C@H](CO)NC(=O)[C@H](Cc1ccc(O)cc1)NC(=O)[C@H](CC(=O)O)NC(=O)[C@H](CO)NC(=O)[C@@H](NC(=O)[C@H](Cc1ccccc1)NC(=O)[C@@H](N)[C@@H](C)O)[C@@H](C)CC)C(=O)N[C@@H](C)C(=O)N[C@@H](CCSC)C(=O)N[C@@H](CC(=O)O)C(=O)N[C@@H](CCCCN)C(=O)N[C@H](C(=O)N[C@@H](Cc1c[nH]cn1)C(=O)N[C@@H](CCCCNC(=O)CCCCCCCCCCCCCCC(=O)O)C(=O)N[C@@H](CCC(N)=O)C(=O)N[C@@H](CC(=O)O)C(=O)N[C@@H](Cc1ccccc1)C(=O)N[C@H](C(=O)N[C@@H](CC(N)=O)C(=O)N[C@@H](Cc1c[nH]c2ccccc12)C(=O)N[C@@H](CC(C)C)C(=O)N[C@@H](CC(C)C)C(=O)N[C@@H](C)C(=O)N[C@@H](CCC(N)=O)C(=O)N[C@@H](CCCCN)C(N)=O)C(C)C)[C@@H](C)CC
B3: AT180 [hGIP(5-30)NH2[Q20K]-C16diacid/20] (peptide)
peptide: TFISDYSIAMDKIHQK(C16 diacid)DFVNWLLAQK-NH2
modifications: N-terminus assumed
SMILES: CC[C@H](C)[C@H](NC(=O)[C@H](CO)NC(=O)[C@H](Cc1ccc(O)cc1)NC(=O)[C@H](CC(=O)O)NC(=O)[C@H](CO)NC(=O)[C@@H](NC(=O)[C@H](Cc1ccccc1)NC(=O)[C@@H](N)[C@@H](C)O)[C@@H](C)CC)C(=O)N[C@@H](C)C(=O)N[C@@H](CCSC)C(=O)N[C@@H](CC(=O)O)C(=O)N[C@@H](CCCCN)C(=O)N[C@H](C(=O)N[C@@H](Cc1c[nH]cn1)C(=O)N[C@@H](CCC(N)=O)C(=O)N[C@@H](CCCCNC(=O)CCCCCCCCCCCCCCC(=O)O)C(=O)N[C@@H](CC(=O)O)C(=O)N[C@@H](Cc1ccccc1)C(=O)N[C@H](C(=O)N[C@@H](CC(N)=O)C(=O)N[C@@H](Cc1c[nH]c2ccccc12)C(=O)N[C@@H](CC(C)C)C(=O)N[C@@H](CC(C)C)C(=O)N[C@@H](C)C(=O)N[C@@H](CCC(N)=O)C(=O)N[C@@H](CCCCN)C(N)=O)C(C)C)[C@@H](C)CC
B4: AT182 [hGIP(5-30)NH2[F22K]-C16diacid/22] (peptide)
peptide: TFISDYSIAMDKIHQQDK(C16 diacid)VNWLLAQK-NH2
modifications: N-terminus assumed
SMILES: CC[C@H](C)[C@H](NC(=O)[C@H](CO)NC(=O)[C@H](Cc1ccc(O)cc1)NC(=O)[C@H](CC(=O)O)NC(=O)[C@H](CO)NC(=O)[C@@H](NC(=O)[C@H](Cc1ccccc1)NC(=O)[C@@H](N)[C@@H](C)O)[C@@H](C)CC)C(=O)N[C@@H](C)C(=O)N[C@@H](CCSC)C(=O)N[C@@H](CC(=O)O)C(=O)N[C@@H](CCCCN)C(=O)N[C@H](C(=O)N[C@@H](Cc1c[nH]cn1)C(=O)N[C@@H](CCC(N)=O)C(=O)N[C@@H](CCC(N)=O)C(=O)N[C@@H](CC(=O)O)C(=O)N[C@@H](CCCCNC(=O)CCCCCCCCCCCCCCC(=O)O)C(=O)N[C@H](C(=O)N[C@@H](CC(N)=O)C(=O)N[C@@H](Cc1c[nH]c2ccccc12)C(=O)N[C@@H](CC(C)C)C(=O)N[C@@H](CC(C)C)C(=O)N[C@@H](C)C(=O)N[C@@H](CCC(N)=O)C(=O)N[C@@H](CCCCN)C(N)=O)C(C)C)[C@@H](C)CC
B5: AT181 [hGIP(5-30)NH2[D21K]-C16diacid/21] (peptide)
peptide: TFISDYSIAMDKIHQQK(C16 diacid)FVNWLLAQK-NH2
modifications: N-terminus assumed
SMILES: CC[C@H](C)[C@H](NC(=O)[C@H](CO)NC(=O)[C@H](Cc1ccc(O)cc1)NC(=O)[C@H](CC(=O)O)NC(=O)[C@H](CO)NC(=O)[C@@H](NC(=O)[C@H](Cc1ccccc1)NC(=O)[C@@H](N)[C@@H](C)O)[C@@H](C)CC)C(=O)N[C@@H](C)C(=O)N[C@@H](CCSC)C(=O)N[C@@H](CC(=O)O)C(=O)N[C@@H](CCCCN)C(=O)N[C@H](C(=O)N[C@@H](Cc1c[nH]cn1)C(=O)N[C@@H](CCC(N)=O)C(=O)N[C@@H](CCC(N)=O)C(=O)N[C@@H](CCCCNC(=O)CCCCCCCCCCCCCCC(=O)O)C(=O)N[C@@H](Cc1ccccc1)C(=O)N[C@H](C(=O)N[C@@H](CC(N)=O)C(=O)N[C@@H](Cc1c[nH]c2ccccc12)C(=O)N[C@@H](CC(C)C)C(=O)N[C@@H](CC(C)C)C(=O)N[C@@H](C)C(=O)N[C@@H](CCC(N)=O)C(=O)N[C@@H](CCCCN)C(N)=O)C(C)C)[C@@H](C)CC

How the values were obtained:
human GIP receptor [1] = target: T1, human GIP receptor (human, UniProt P48546 22-466); experiment: 125I-hGIP competition binding, COS-7 cells expressing hGIPR;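 further: nonspecific binding taken as radioligand bound by untransfected cells, binding buffer with or without 2% HSA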
T1 construct: whole, on cells; also called hGIPR
T1 sequence (looked up): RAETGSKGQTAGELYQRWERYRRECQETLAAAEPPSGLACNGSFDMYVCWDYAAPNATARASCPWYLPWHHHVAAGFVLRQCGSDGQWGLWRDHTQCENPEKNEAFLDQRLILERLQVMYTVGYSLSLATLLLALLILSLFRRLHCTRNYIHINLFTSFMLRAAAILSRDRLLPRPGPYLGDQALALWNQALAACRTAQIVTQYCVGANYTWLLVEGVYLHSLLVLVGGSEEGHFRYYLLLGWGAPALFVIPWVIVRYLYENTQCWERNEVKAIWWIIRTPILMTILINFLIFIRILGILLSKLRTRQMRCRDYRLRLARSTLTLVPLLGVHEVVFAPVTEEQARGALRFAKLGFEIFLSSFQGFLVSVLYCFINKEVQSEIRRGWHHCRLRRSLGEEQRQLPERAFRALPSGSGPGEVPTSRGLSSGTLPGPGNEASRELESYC
Protocol: (§1) After incubation, the cells were washed twice in ice-cold binding buffer (+/−2% HSA) and lysed using 200 mM NaOH with 1% SDS for 30 min. Nonspecific binding was determined as the binding of radioactive ligand to untransfected cells.

human GIP receptor [2] = target: T1, human GIP receptor; experiment: 125I-hGIP competition binding, COS-7/hGIPR, 0.1% casein;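 further: nonspecific binding defined as radioligand binding measured on untransfected cells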
Protocol: as §1

human GIP receptor [3] = target: T1, human GIP receptor; experiment: IC50 with 2% HSA over IC50 with 0.1% casein, 125I-hGIP competition, COS-7/hGIPR
Protocol: as §1

human GIP receptor [4] = target: T1, human GIP receptor; experiment: 125I-hGIP competition binding, COS-7/hGIPR, 2% HSA;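 further: nonspecific binding defined as radioligand binding to untransfected cells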
Protocol: as §1

human GIP receptor [5] = target: T1, human GIP receptor; experiment: cell-based or functional assay

Binder	IC50 (human GIP receptor [1]) [nM]	log IC50 (human GIP receptor [1]) [log M]	IC50 (human GIP receptor [2]) [nM]	logIC50 (human GIP receptor [2]) [log M]	Fold change HSA (2%)/Casein (0.1%) (human GIP receptor [3]) [fold]	IC50 (human GIP receptor [4]) [nM]	logIC50 (human GIP receptor [4]) [log M]	cAMP agonism, Emax (human GIP receptor [5])	cAMP antagonism (human GIP receptor [5]) [nM]	cAMP antagonism, log (human GIP receptor [5]) [log M]	cAMP agonism (human GIP receptor [5]) [nM]	cAMP agonism, EC50 (log) (human GIP receptor [5]) [log M]
B1	66	-7.2	66.1	-7.2	3	195	-6.7	0	33	-7.5	–	–
B2	453	-6.3	10.5	-7.98	3.6	38	-7.42	32	89	-7.1	89	-7
B3	106	-7	457	-6.3	3.7	1700	-5.8	0	37	-7.4	–	–
B4	962	-6	47.9	-7.3	3	141	-6.9	13	634	-6.2	634	-6
B5	48	-7.3	105	-7	5.2	550	-6.3	9	16	-7.8	2	-9
